“Also recorded” adds a separate entry of the source.
Key:
DLL4 = DLL4 expression in mature osteoclasts by qRT-PCR; type: cell-based, mouse
Excerpt: DLL-4 expression is repressed in the presence of […] and IL-17 but can be de-repressed by RANKL. Having identified that DLL4 was required for osteoclasts to induce Foxp3 expression in CD8+ T cells we next tested if DLL-4 expression was affected by pro-inflammatory cytokines. […] As RANKL induced DLL4 in osteoclast precursors, it was hypothesized that adding additional RANKL may overcome the repression of DLL4 by TNFα. To assess the reversibility of DLL4 expression, mature osteoclasts were cultured overnight in 50 ng/ml RANKL and 20 ng/ml […], and then additional RANKL was added to the culture media (while maintaining 20 ng/ml TNFα) as shown in FIG. 5E. Indeed, addition of RANKL overcomes (within 24 hours) the repression of DLL4 by TNFα as assessed by qRT-PCR. […] The experiment was performed as above, but in this case FoxP3 induction in OT-I CD8 T-cells in the presence of OVA and either 10 ng/ml or 20 ng/ml TNFα was measured.
Osteoclasts seeded on day 4 at 1.5×10^6 cells/ml were used in all experiments. RNA was isolated at time point described in Figure legends. 10 to 50 ng of RNA was used for first-strand cDNA synthesis in 50 μL reaction per kit instructions (Superscript III cDNA synthesis system; Invitrogen). In all cases 10% of the cDNA product was used in a 50 μL PCR reaction that contained 10 μM each forward and reverse primers. For quantitative PCR (qPCR) SYBR green system (Invitrogen) was used. Otherwise, cDNA was amplified (25 cycles) and the products resolved on 1.2% agarose gel and visualized by ethidium bromide staining.

TNFα and IL17A = test: Once per month low-dose RANKL or Zoledronate: cytokines from peripheral blood cells by multiplexed ELISA; type: in vivo, mice; details: 120 days post-OVX; RANKL 0.125 mg/kg once per month; ZA once 3 weeks post-OVX
Experimental: To assess the kinetics of a single treatment, C57BL/6J ovariectomized mice were treated with low-dose RANKL (administered twice 24 hrs apart, 2 weeks post-OVX) and then followed by serum CTX assay. […] In FIG. 11B, to assess whether multiple treatments are effective, sham-operated (Sx) or OVX 12-week old C57BL/6J mice were treated with low-dose RANKL (0.125 mg/kg) once per month or once with the bisphosphonate Zoledronate (ZA; 3 weeks post-OVX). 120 days post-OVX peripheral blood obtained by mandible bleeds was treated to remove RBCs (BD Pharmalyse) then 1 to 3×10^6 cells were plated per well in triplicate (6 mice/group). Media was collected after 36 hours of culturing and cytokine levels quantitated by multiplexed ELISA (Millipore).

[1] = system: atherosclerotic lesions in the aortic root; test: WD-fed ovariectomized LDLR-/- and WT mice dosed with saline or IdRANKL: weight, cholesterol, atheroma, BV/TV; type: in vivo; details: for atheroprotection / effects of OVX on atherogenesis / bone loss (BV/TV): LDLR-/- and WT mice; for reduction of plaque size compared to non-treated animals: WD, OVX; for body weight gain: ovariectomized WD-fed LDLR-/- and WT mice
Experimental: Ovariectomized (OVX) mice were treated with saline control or pulsed low-dose RANKL at 3 and 7 weeks post-OVX. RANKL was administered at 0.125 mg/kg twice at 0 and 24 hours for each treatment time point.
In order to define the contributions of menopause, LDL-cholesterol, and diet to postmenopausal morbidities, 10-week-old wild-type (WT) and (LDLR−/−) mice were placed on normal (ND) or western (WD) diet and we performed sham-surgery or ovariectomy two weeks after die diet switch. This regimen is intended to mimic the conditions of patients, who presumably already have fatty streaks in their vasculature by the time menopause ensues. All animals were sacrificed at 19 weeks of age, when hearts, long bones, and blood were collected.
It has been previously shown that low-dose RANKL (IdRANKL) induces TcREG in bone marrow. We postulated that induction of TcREG might be atheroprotective as it protects against osteoporosis in ovariectomized mice. To test that proposal, we first tested the ability of IdRANKL to modulate the systemic availability of proinflammatory cytokines. Thus, a new group of WT mice were fed WD, and subjected to sham or OVX surgeries, then dosed with saline or IdRANKL (two i.p. injections 3 and 7 weeks after OVX). […] We then, measured the ability of freshly isolated T-cells from peripheral blood to produce IL-17A and TNFα. […] Zoledronate is a bisphosphonate that is used clinically to prevent bone resorption (by suppressing osteoclasts). […] Without being limited to any particular theory of operation, we hypothesize that these cells contribute to postmenopausal comorbidities such as atherosclerosis and osteoporosis, and that immunosuppressing therapies such as pulsed IdRANKL will have cardio- and osteo-protective effects.
To test this hypothesis, a new group of LDLR−/− and WT mice were fed WD and ovariectomized as discussed previously, and dosed with saline or IdRANKL as above. […] The underlying mechanism for this limiting weight-gain following induction of TcREG is not known, but warrants further study. […] This beneficial effect was more pronounced in WI mice, where plaques were reduced by 80% in size, compared to non-treated animals. In LDLR−/− mice, the reduction was more modest at 35%. […] We conclude that IdRANKL likely exerts protective effects in the aorta and the bone via TcReG-mediated suppression of TEFF proinflammatory activity (e.g. production of IL-17A and TNFα).

ovariectomized mice = test: Pulsed versus continuous (ALZET pump) RANKL in OVX mice; type: in vivo
Experimental: FIGS. 10A through 10E show the effect of delivering RANKL in pulses as opposed to a continuous exposure leads to its antiresorptive effect. 12 week old mice were treated either as sham-operated or OVX using pumps or pulsed. Two weeks post-surgery ALZET® pumps were implanted in the intraperitoneal cavity that contained either PBS or RANKL as indicated in the plots above. All groups were pulsed with equivalent dose of RANKL (0.125 mg/kg, pulsed twice 24 hrs. apart) or PBS as indicated in the plots. […] In FIG. 10B, Quantification across groups (6 mice/group).

B1: receptor activator of NF-κB ligand (protein, UniProt O35235 139-316, looked up)
Tumor necrosis factor ligand …: FSGAPAMMEGSWLDVAQRGKPEAQPFAHLTINAASIPSGSHKVTLSSWYHDRGWAKISNMTLSNGKLRVNQDGFYYLYANICFRHHETSGSVPTDYLQLMVYVVKTSIKIPSSHNLMKGGSTKNWSGNSEFHFYSINVGGFFKLRAGEEISIQVSNPSLLDPDQDATYFGAFKVQDID
modifications: GST tag
time for RANKL to overcome the repression of DLL4 by TNFα (DLL4; 20 ng/ml TNFα): ≤ 24 h
DLL4 expression after additional RANKL (DLL4; mature osteoclasts, 50 ng/ml RANKL and 20 ng/ml TNFα maintained): increased the expression of DLL4; also recorded: overcomes
TNFα and IL17A produced by peripheral blood cells (immunosuppression) (TNFα and IL17A): immunosuppressive
atheroprotection / effects of OVX on atherogenesis [1]: eliminated the effects of OVX on both osteoporosis and atherogenesis
total cholesterol in serum ([1]; LDLR-/- and WT mice (FIG. 20G)): does not significantly alter total cholesterol in serum
atheroprotection / effects of OVX on atherogenesis ([1]; listed as IdRANKL): atheroprotective
bone loss (BV/TV) ([1]; listed as IdRANKL): pronounced effect on preventing osteoporosis
bone loss (BV/TV) ([1]; listed as low-dose RANKL): prevents bone loss
serum cholesterol ([1]; LDLR-/- mice): slightly decreased
reduction of plaque size compared to non-treated animals ([1]; LDLR-/- mice): 35%
reduction of plaque size compared to non-treated animals ([1]; WT mice): 80%
body weight gain ([1]; listed as IdRANKL): ameliorated body weight gain
body weight gain ([1]; listed as low-dose RANKL): reduces body gain weight
bone resorption (ovariectomized mice; continuous delivery via osmotic pumps): led to increased bone resorption
TcREG induction (ovariectomized mice; continuous exposure by pump, identical dose): did not induce TcREG; also recorded: No TcREG induction is observed
Bone volume (BV/TV) (ovariectomized mice; delivered by pump): decreased
Bone volume (BV/TV) (ovariectomized mice; pulsed): restored to levels observed in sham-operated mice
TEFF cells (ovariectomized mice; pulsed): decrease in TEFF cells was only observed in mice pulsed with RANKL
bone resorption (ovariectomized mice; pulsed): decreased levels of bone resorption were observed
TcREG induction (ovariectomized mice; pulsed, 0.125 mg/kg twice 24 hrs apart): induced TcREG

From US10745461B2, “Pulsed introduction of low-dose RANKL as a therapy for diet-induced atherosclerosis” (Saint Louis University, priority 2015, dated 2020)
